Results from paper PMC12144868, “New Transferrin Receptor‐Targeting Conjugate Effectively Delivers DNA to Mouse Brain”.

Biological target: human transferrin receptor (hTfR), extracellular domain (Homo sapiens, UniProt P02786 89-760)
Experiment: SPR; ka 6.30E+06; kd 1.38E-04 s-1; SPR Biacore T100, SA chip, biotinylated aptamer heated to 65°C then cooled to 37°C before immobilization; five hTfR concentrations at 10 uL/min; 1:1 model with
Details: protein: commercial; tags: N-terminal tag (His implied by Ni-NTA; tag name cut in the text); chain copies: 2; label: biotin

Chain of human transferrin receptor (hTfR), extracellular domain (P02786 89-760): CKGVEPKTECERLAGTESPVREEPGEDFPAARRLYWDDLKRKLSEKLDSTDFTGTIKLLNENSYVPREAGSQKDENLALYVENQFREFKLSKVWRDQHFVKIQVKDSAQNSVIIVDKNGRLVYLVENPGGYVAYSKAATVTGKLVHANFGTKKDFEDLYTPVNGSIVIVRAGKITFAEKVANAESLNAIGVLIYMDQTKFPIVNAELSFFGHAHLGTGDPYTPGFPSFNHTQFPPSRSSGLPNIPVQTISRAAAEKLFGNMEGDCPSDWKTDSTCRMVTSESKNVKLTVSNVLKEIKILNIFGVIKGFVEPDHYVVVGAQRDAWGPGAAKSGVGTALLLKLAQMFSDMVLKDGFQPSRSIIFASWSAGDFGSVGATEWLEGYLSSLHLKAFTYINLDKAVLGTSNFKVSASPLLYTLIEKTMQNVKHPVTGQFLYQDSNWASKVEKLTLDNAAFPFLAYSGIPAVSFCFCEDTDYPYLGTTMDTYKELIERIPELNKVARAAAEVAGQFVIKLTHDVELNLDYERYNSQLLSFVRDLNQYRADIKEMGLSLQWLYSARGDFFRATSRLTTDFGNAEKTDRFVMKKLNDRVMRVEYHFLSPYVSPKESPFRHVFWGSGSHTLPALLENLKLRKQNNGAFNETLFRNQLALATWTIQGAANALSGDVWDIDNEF

UUUAUUCACAUUUUUGAAUUGA (XNA, all U and C 2'F-2'-deoxy (i2FU, i2FC); A and G ribo) [tTfR aptamer 22-nt (truncated)]
Kd: 0.022 nM
